Experimental findings from patent EP4631974A1 are described below.

In experiment [1] the target is RSV A2 pre-F protein (respiratory syncytial virus (RSV) A2) (UniProt P03420). Kind of experiment: ELISA, plate-coated RSV A2 pre-F, anti-human IgG Fc-HRP detection. For orientation: ELISA stands for enzyme-linked immunosorbent assay.
Experiment [2] has the same target. Kind of experiment: BLI (Octet R8), RSV A2 pre-F captured on HIS1K sensor, antibody in solution. On the technique in general: BLI is a label-free optical method that tracks binding on a fibre tip over time.
Experiment [3] has the same target. The experiment in a line: ELISA, plate-coated RSV A2 pre-F, anti-human IgG Fc-HRP detection (2-fold dilutions from 1 ug/mL).
Experiment [4] has the same target. The experiment in a line: BLI (Octet R8), RSV A2 pre-F captured on HIS1K sensor, antibody in solution. This is another data set of the same source.

Like-named read-outs stand apart in the source and are kept apart here.

On to MEDI8897 (antibody), for which the EC50 is 0.0313 µg/mL in experiment [1] and 0.0146 µg/mL in experiment [3]. Besides, the Kd in experiment [2] is 122 pM; in experiment [4], 379 pM.

A word on the EC50: it is the concentration needed to bring the measured effect to its halfway point. Lower therefore signals a more potent agent. As usually defined, the Kd is the equilibrium constant for the complex coming apart. High values mean a looser complex, low ones a tighter complex.
